Positions count from the first letter of the chain named. Names and notes keep the numbering of the source. Like-named read-outs stand apart in the source and are kept apart here. Blank lines part the entries; values can stand above or below the binder they belong to.
Experiments:
Assay in all cases: cell-based or functional assay
[1] = target: T1, GDF15 receptors GFRAL and RET, overexpressed together on HEK293 cells (UniProt Q6UXV0 19-394; P07949 29-1114, limits assumed)
[2] = target: T1, GDF15 receptors GFRAL and RET, …; remark: listed apart in the source
[3] = target: T1, GDF15 receptors GFRAL and RET, …; remark: listed apart in the source
[4] = target: T1, GDF15 receptors GFRAL and RET, …; remark: listed apart in the source

T1 sequence (Q6UXV0 19-394 limits assumed, chain 1 of 2): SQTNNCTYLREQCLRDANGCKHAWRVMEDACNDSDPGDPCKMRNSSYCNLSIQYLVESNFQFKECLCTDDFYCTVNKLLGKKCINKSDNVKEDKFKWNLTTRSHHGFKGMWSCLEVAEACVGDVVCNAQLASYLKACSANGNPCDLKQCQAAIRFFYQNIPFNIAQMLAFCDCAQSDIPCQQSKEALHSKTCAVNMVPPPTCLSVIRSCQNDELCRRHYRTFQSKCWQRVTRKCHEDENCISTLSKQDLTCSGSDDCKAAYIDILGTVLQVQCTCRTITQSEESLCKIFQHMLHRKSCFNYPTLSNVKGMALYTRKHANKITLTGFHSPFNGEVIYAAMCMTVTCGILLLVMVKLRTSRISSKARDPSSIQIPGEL
T1 sequence (P07949 29-1114 limits assumed, chain 2 of 2): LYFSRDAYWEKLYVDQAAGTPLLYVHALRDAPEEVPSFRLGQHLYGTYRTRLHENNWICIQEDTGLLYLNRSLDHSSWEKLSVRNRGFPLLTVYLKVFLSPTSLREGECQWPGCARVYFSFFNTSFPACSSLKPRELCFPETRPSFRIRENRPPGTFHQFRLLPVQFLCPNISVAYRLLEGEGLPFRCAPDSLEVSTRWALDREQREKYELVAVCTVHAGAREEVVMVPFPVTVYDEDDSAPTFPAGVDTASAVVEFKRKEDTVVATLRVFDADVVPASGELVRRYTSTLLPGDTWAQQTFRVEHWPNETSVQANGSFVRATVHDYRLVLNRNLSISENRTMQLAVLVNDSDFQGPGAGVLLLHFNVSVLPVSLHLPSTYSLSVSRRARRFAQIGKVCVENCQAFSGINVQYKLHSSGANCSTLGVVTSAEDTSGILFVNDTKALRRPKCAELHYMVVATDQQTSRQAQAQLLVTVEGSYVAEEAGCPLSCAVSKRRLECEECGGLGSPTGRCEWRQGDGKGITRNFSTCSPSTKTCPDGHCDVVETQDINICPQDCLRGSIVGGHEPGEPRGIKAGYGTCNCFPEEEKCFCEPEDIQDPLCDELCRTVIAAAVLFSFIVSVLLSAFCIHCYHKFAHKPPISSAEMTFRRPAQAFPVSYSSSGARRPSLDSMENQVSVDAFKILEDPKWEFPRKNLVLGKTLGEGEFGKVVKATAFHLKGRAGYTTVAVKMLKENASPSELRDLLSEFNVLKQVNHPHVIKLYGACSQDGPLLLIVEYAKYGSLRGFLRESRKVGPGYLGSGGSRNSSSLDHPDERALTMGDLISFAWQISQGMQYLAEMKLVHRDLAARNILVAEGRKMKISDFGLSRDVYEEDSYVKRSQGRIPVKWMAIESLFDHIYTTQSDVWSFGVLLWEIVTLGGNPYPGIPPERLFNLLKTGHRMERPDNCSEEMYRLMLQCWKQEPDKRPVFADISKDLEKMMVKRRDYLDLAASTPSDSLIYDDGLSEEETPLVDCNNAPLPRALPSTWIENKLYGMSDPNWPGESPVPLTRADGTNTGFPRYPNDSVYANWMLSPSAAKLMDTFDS

B1: long-acting GDF15 fusion protein (dimer) FM10 + Fc_hole (ΔN3, WS insertion, G4N, D5S, H6T, S64R) (Fc fusion)
chain 1: APALAGGPSVFLFPPKPKDTLMISRTPEVTCVVVDVSHEDPEVKFNWYVDGVEVHNAKTKPREEQYNSTYRVVSVLTVLHQDWLNGKEYKCKVSNKALPAPIEKTISKAKGQPREPQVYTLPPSREEMTKNQVSLWCLVKGFYPSDIAVEWESNGQPENNYKTTPPVLDSDGSFFLYSKLTVDKSRWQQGNVFSCSVMHEALHNHYTQKSLSLSPGKGGGGSGGGGSGGGGSGGGGSGGGGSWSNSTCPLGPGRCCRLHTVRASLEDLGWADWVLSPREVQVTMCIGACPSQFRAANMHAQIKTRLHRLKPDTVPAPCCVPASYNPMVLIQKTDTGVSLQTYDDLLAKDCHCI
chain 2: not shown
- EC50 [1]: 2.3 nM
- Emax (%) [1]: 267%

B4: long-acting GDF15 fusion protein (dimer) FM12 + Fc_hole (ΔN2, R21N, S64R) (Fc fusion)
chain 1: APALAGGPSVFLFPPKPKDTLMISRTPEVTCVVVDVSHEDPEVKFNWYVDGVEVHNAKTKPREEQYNSTYRVVSVLTVLHQDWLNGKEYKCKVSNKALPAPIEKTISKAKGQPREPQVYTLPPSREEMTKNQVSLWCLVKGFYPSDIAVEWESNGQPENNYKTTPPVLDSDGSFFLYSKLTVDKSRWQQGNVFSCSVMHEALHNHYTQKSLSLSPGKGGGGSGGGGSGGGGSGGGGSGGGGSNGDHCPLGPGRCCRLHTVNASLEDLGWADWVLSPREVQVTMCIGACPSQFRAANMHAQIKTRLHRLKPDTVPAPCCVPASYNPMVLIQKTDTGVSLQTYDDLLAKDCHCI
chain 2: not shown
- EC50 [1]: 5.9 nM
- Emax (%) [1]: 221%

B5: long-acting GDF15 fusion protein (dimer) FM4-1 + Fc_hole (ΔN2, N56S, D103S) (Fc fusion)
chain 1: B4 chain 1 with N261R, N296S, R304S, D343S
chain 2: not shown
- EC50 [4]: 8.9 nM
- Emax (%) [relative to FWT 100%] [4]: 86.4%

B8: long-acting GDF15 fusion protein (dimer) FM4-2 + Fc_hole (ΔN2, D103L) (Fc fusion)
chain 1: B4 chain 1 with N261R, R304S, D343L
chain 2: not shown
- EC50 [4]: 10.6 nM
- Emax (%) [relative to FWT 100%] [4]: 110%

B9: long-acting GDF15 fusion protein (dimer) FM9 + Fc_hole (ΔN2, S64R) (Fc fusion)
chain 1: B4 chain 1 with N261R
chain 2: not shown
- EC50 [3]: 5 nM
- Emax (%) [relative to FWT 100%] [3]: 123%

B10: long-acting GDF15 fusion protein (dimer) FM4-3 + Fc_hole (ΔN2, N56L) (Fc fusion)
chain 1: B4 chain 1 with N261R, N296L, R304S
chain 2: not shown
- EC50 [4]: 140 nM
- Emax (%) [relative to FWT 100%] [4]: 34.3%

B11: long-acting GDF15 fusion protein (dimer) FM4 + Fc_hole (ΔN2, N56C, D103C) (Fc fusion)
chain 1: B4 chain 1 with N261R, N296C, R304S, D343C
chain 2: not shown
- EC50 [2]: 3.4 nM
- Emax (%) [relative to FWT 100%] [2]: 133%
- EC50 [4]: 3.6 nM
- Emax (%) [relative to FWT 100%] [4]: 140%

B12: long-acting GDF15 fusion protein (dimer) FM11 + Fc_hole (ΔN3, G4N, D5S, H6T, S64R) (Fc fusion)
chain 1: APALAGGPSVFLFPPKPKDTLMISRTPEVTCVVVDVSHEDPEVKFNWYVDGVEVHNAKTKPREEQYNSTYRVVSVLTVLHQDWLNGKEYKCKVSNKALPAPIEKTISKAKGQPREPQVYTLPPSREEMTKNQVSLWCLVKGFYPSDIAVEWESNGQPENNYKTTPPVLDSDGSFFLYSKLTVDKSRWQQGNVFSCSVMHEALHNHYTQKSLSLSPGKGGGGSGGGGSGGGGSGGGGSGGGGSNSTCPLGPGRCCRLHTVRASLEDLGWADWVLSPREVQVTMCIGACPSQFRAANMHAQIKTRLHRLKPDTVPAPCCVPASYNPMVLIQKTDTGVSLQTYDDLLAKDCHCI
chain 2: not shown
- EC50 [1]: 2.9 nM
- Emax (%) [1]: 270%

More lines, now with the values ahead:

- EC50 [2]: 7 nM
- Emax (%) [relative to FWT 100%] [2]: 100%
- EC50 [3]: 7.3 nM
- Emax (%) [relative to FWT 100%] [3]: 100%
- EC50 [4]: 5.4 nM
- Emax (%) [relative to FWT 100%] [4]: 100%
B2: long-acting GDF15 fusion protein (dimer) FWT + Fc_hole (ΔN2) (Fc fusion)
chain 1: B4 chain 1 with N261R, R304S
chain 2: not shown

- EC50 [3]: 9.6 nM
- Emax (%) [relative to FWT 100%] [3]: 93.3%
B3: long-acting GDF15 fusion protein (dimer) FM13 + Fc_hole (ΔN2, S64N) (Fc fusion)
chain 1: B4 chain 1 with N261R, R304N
chain 2: not shown

- EC50 [3]: 7.9 nM
- Emax (%) [relative to FWT 100%] [3]: 48.2%
B6: long-acting GDF15 fusion protein (dimer) FM14 + Fc_hole (ΔN2, S64D) (Fc fusion)
chain 1: B4 chain 1 with N261R, R304D
chain 2: not shown

- EC50 [3]: 33.6 nM
- Emax (%) [relative to FWT 100%] [3]: 41%
B7: long-acting GDF15 fusion protein (dimer) FM15 + Fc_hole (ΔN2, S64E) (Fc fusion)
chain 1: B4 chain 1 with N261R, R304E
chain 2: not shown

Reference: US20230002460A1 (YUHAN, published 2023)
